The text below walks through data of patent publication US10907134B2, “Mutated genes for the catalytic protein of oplophorus luciferase and use thereof” (JNC CORPORATION, priority 2013, dated 2021).

Where a chain is given by its changes, count along the chain named. Numbers in names are those of the source.

A short description of experiment [1]: Luminescence activity of KAZ mutants (pCold II, E. coli) in supernatant and precipitate of crude enzyme solution. The format is biochemical. The settings on record: Table 3, pCold II, E. coli BL21, 0.5 μg coelenterazine, 60 seconds; for Relative Luminescence Activity (Imax) Precipitate: 5 μL precipitate; for Relative Luminescence Activity (Imax) Supernatant: 5 μL supernatant. On the procedure:
In order to express the KAZ mutants in E. coli, the recombinant plasmid prepared in EXAMPLE 3 was used. The E. coli BL21 strain (Novagen, Madison, Wis.) was used as a host cell. The BL21 strain carrying the recombinant plasmid was incubated in 5 mL of Luria-Bertani medium (hereinafter designated as LB medium) containing ampicillin (50 μg/mL) at 37° C. for 18 hours. This seed culture, 0.1 mL, was inoculated to 10 mL of LB medium and incubated for 3 hours, followed by cooling in an ice-water bath for 1 hour. IPTG was added to the culture medium at a final concentration of 1 mM, followed by incubation at 15° C. for further 20 hours. After completion of the incubation, 1 mL of the cultured medium was harvested by centrifugation at 10,000 rpm for 2 minutes. The thus collected E. coli cells were suspended in 0.5 mL of 30 mM Tris-HCl (pH 7.6)-10 mM EDTA (manufactured by Wako Pure Chemical Industries, Ltd.) (hereinafter designated as TE). The E. coli cells were disrupted by sonication for 3 seconds using a Branson Model 250 Sonifier (Danbury, Conn.) to give a crude enzyme solution. After 0.5 mL of the crude enzyme solution was further centrifuged at 10,000 rpm for 2 minutes to separate the supernatant from the precipitate, the precipitate was suspended in 0.5 mL of TE. Then 20 μL each of the supernatant and precipitate were analyzed by SDS-PAGE to confirm the presence or absence of soluble and insoluble proteins. The results are shown in FIG. 1, wherein M and 1 to 17 denote: M: molecular weight size markers; 1: KAZ; 2 KAZ-A4E; 3: KAZ-Q11R; 4: KAZ-Q18L; 5: KAZ-L27V; 6: KAZ-A33N; 7: KAZ-K43R; 8: KAZ-V44I; 9: KAZ-A54I; 10: KAZ-F68D; 11: KAZ-L72Q; 12: KAZ-M75K; 13: KAZ-I90V; 14: KAZ-P115E; 15: KAZ-Q124K; 16: KAZ-Y138I; 17: KAZ-N166R and 18: dnKAZ.
A luminescence reaction was started by the addition of 5 μL each of the supernatant and precipitate obtained in EXAMPLE 4 to 100 μL of TE containing 0.5 μg of coelenterazine (manufactured by JNC Corp.). The luminescence activity was measured for 60 seconds using a luminometer (manufactured by Atto Corp.: AB2200) and expressed in terms of relative luminescence activity (Imax).
To express the KAZ mutants with two amino acid substitutions and three amino acid substitutions in E. coli using a pCold II vector, the recombinant plasmid constructed in EXAMPLE 13 and pCold-V44I-KAZ, pCold-A54I-KAZ, pCold-Y138I-KAZ prepared in EXAMPLE 3 were used. The supernatant and precipitate of each crude enzyme solution were prepared in the same manner as EXAMPLE 4, using the E. coli BL21 starin (Novagen, Madison, Wis.) as a host cell. The supernatant and precipitate, 20 μL each, were subjected to SDS-PAGE analysis to confirm the presence or absence of soluble proteins and insoluble proteins. In FIG. 3, M and 1 to 9 are as follows. M: molecular weight markers; 1: dnKAZ; 2: KAZ; 3: KAZ-V44I-A54I; 4: KAZ-V44I-Y138I; 5: KAZ-A54I-Y138I; 6: KAZ-V44I-A54I-Y138I; 7: KAZ-V44I; 8: KAZ-A54I; and 9: KAZ-Y138I.
The luminescence activities of 5 μL each of the supernatant and precipitate obtained in EXAMPLE 14 were determined in the same manner as EXAMPLE 5. The luminescence activity was assayed with a luminometer (manufactured by Atto Inc.: AB2200) for 60 seconds, and the maximum intensity of luminescence (Imax) was shown as relative luminescence activity.

A short description of experiment [2]: Luminescence activity of ZZ-fused KAZ mutants in crude enzyme solutions. The following applies: Table 4; ZZ-fused (pCold-ZZ-P-); 1 μL crude enzyme solution, 1 mM DTT; 1 μg coelenterazine. Type of experiment: biochemical. On the procedure:
To express the ZZ-fused KAZ mutants in E. coli, the recombinant plasmid prepared in EXAMPLE 6 was used. Crude enzyme solutions were prepared in the same manner as EXAMPLE 4 using the E. coli BL21 strain (Novagen, Madison, Wis.) as a host cell. The resultant crude enzyme solution, 5 μL, was subjected to SDS-PAGE analysis to confirm expression of the proteins (FIG. 2). In FIG. 2, M and 1 to 18 are the same as described in FIG. 1.
DTT was added to the crude enzyme solution obtained in EXAMPLE 7 at a final concentration of 1 mM and the mixture was allowed to stand in an ice water for more than 5 hours. A luminescence reaction was started by adding 1 μL of the crude enzyme solution to 100 μL of TE containing 1 μg of coelenterazine (manufactured by JNC Corp.). The luminescence activity was determined using a luminometer (manufactured by Atto Inc.: AB2200) for 60 seconds, and the maximum intensity of luminescence (Imax) was shown as relative luminescence activity.
To express the ZZ-fused KAZ mutants in E. coli, the recombinant plasmid constructed in EXAMPLE 16 and pCold-ZZ-P-V44I-KAZ, pCold-ZZ-P-A54I-KAZ, pCold-ZZ-P-Y138I-KAZ prepared in EXAMPLE 6 were used. Crude enzyme solutions were prepared in the same manner as EXAMPLE 7, using the E. coli BL21 strain (Novagen, Madison, Wis.) as a host cell. DTT was added to the crude enzyme solutions at a final concentration of 1 mM. The mixtures were allowed to stand over 5 hours on ice, and luminescence activities were then assayed. The luminescence activities were determined by the method described in EXAMPLE 8. Also, 5 μL of the resultant crude enzyme solutions were subjected to SDS-PAGE analysis to confirm protein expression (FIG. 4). In FIG. 4, M and 1 to 9 are as follows. M: molecular weight size markers; 1: ZZ-P-KAZ; 2: ZZ-P-KAZ-V44I; 3: ZZ-P-KAZ-A54I; 4: ZZ-P-KAZ-Y138I; 5: ZZ-P-KAZ-V44I-A54I; 6: ZZ-P-KAZ-V44I-Y138I; 7: ZZ-P-KAZ-A54I-Y138I; 8: ZZ-P-KAZ-V44I-A54I-Y138I; and 9: ZZ-P-dnKAZ.

The subject of the next experiment is CHO-K1 cells. Description: Luminescence activity of KAZ mutants expressed in animal culture cells with signal peptide of Gaussia luciferase for secretion. The format is cell-based, Chinese hamster. The settings on record: Table 5, pcDNA3-GLsp- vectors, CHO-K1, 48 hours, 0.5 μg coelenterazine; for Relative Luminescence Activity (Imax) (%) Cell Extracts: 5 μL cell extracts; for Relative Luminescence Activity (Imax) (%) Culture Medium: 5 μL culture medium. The protocol: Chinese hamster ovary cell line CHO-K1 was cultured in Ham's F-12 medium (manufactured by Wako Pure Chemical Industries, Ltd.) supplemented with 10% (v/v) fetal bovine serum (manufactured by Biowest Inc.). The CHO-K1 cells were plated in a 6-well plate in 1×10^5 cells/well/2 mL medium (n=2) and cultured in an incubator at 37° C. in 5% (v/v) CO2. After 24 hours, the purified recombinant plasmid was transfected to CHO-K1 cells using a FuGene HD transfection kit (manufactured by Promega Corp.), which was provided for subsequent experiment. Specifically, 1 μg of the recombinant plasmid pGL4.13 [Luc2/sv40], 0.1 μg of the internal standard vector and 3 μL of FuGene HD were added to 100 μL of the medium, which was allowed to stand at room temperature for 15 minutes. Subsequently, 100 μL of the DNA-FuGene complex was added to the cells in the 6 wells. After incubation for 48 hours, the culture medium was collected. On the other hand, the KAZ mutants expressed in the cells were washed 3 times with 3 mL of 1×PBS, then suspended in 1 mL of 1×PBS and disrupted on ice by ultrasonication, which was used as enzyme solutions of the cell-extracts of KAZ mutants.
A luminescence reaction was started by adding 5 μL of the culture media and cell extracts obtained in EXAMPLE 10 to 100 μL of 30 mM Tris-HCl (pH 7.6)-10 mM EDTA (manufactured by Wako Pure Chemical Industries, Ltd.) containing 0.5 μg of coelenterazine (manufactured by INC Corp.). The luminescence activity was determined using a luminometer (manufactured by Atto Inc.: AB2200) for 60 seconds, and the maximum intensity of luminescence (Imax) was defined as a percentage.
Culture media of the KAZ mutants with two amino acid substitutions and KAZ mutants with three amino acid substitutions and the enzyme solutions of the cell-extracts of KAZ mutants were prepared in the same manner as EXAMPLE 10.
In the resultant enzyme solutions and the enzyme solutions of the cell-extracts of KAZ mutants, luminescence activities were determined in the same manner as EXAMPLE 11.

B1: KAZ-Q11R: KAZ with single amino acid substitution Q11R (protein)
chain: FTLADFVGDWRQTAGYNQDQVLEQGGLSSLFQALGVSVTPIQKVVLSGENGLKADIHVIIPYEGLSGFQMGLIEMIFKVVYPVDDHHFKIILHYGTLVIDGVTPNMIDYFGRPYPGIAVFDGKQITVTGTLWNGNKIYDERLINPDGSLLFRVTINGVTGWRLCENILA
As for B1, in experiment [1], the “Relative Luminescence Activity (Imax) Precipitate” value is on record as 0.3 and the “Relative Luminescence Activity (Imax) Supernatant” value is recorded as 2.0. The “Relative Luminescence Activity (Imax)” value in experiment [2] is recorded as 1.8. Further, in the experiment with CHO-K1 cells, the “Relative Luminescence Activity (Imax) (%) Cell Extracts” value was 0.1% and the “Relative Luminescence Activity (Imax) (%) Culture Medium” value is reported as “less than 0.01%”.

B2: KAZ-F68D: KAZ with single amino acid substitution F68D (protein)
chain: B1 chain with R11Q, F68D
As for B2, in experiment [1], the “Relative Luminescence Activity (Imax) Precipitate” value was 0.2 and the “Relative Luminescence Activity (Imax) Supernatant” value turned out to be 5.4. Besides, the “Relative Luminescence Activity (Imax)” value in experiment [2] was 2.7. In addition, in the experiment with CHO-K1 cells, the “Relative Luminescence Activity (Imax) (%) Cell Extracts” value worked out at 0.3% and the “Relative Luminescence Activity (Imax) (%) Culture Medium” value is given as “less than 0.01%”.

B3: KAZ-L72Q: KAZ with single amino acid substitution L72Q (protein)
chain: B1 chain with R11Q, L72Q
In the case of B3, in experiment [1], the “Relative Luminescence Activity (Imax) Precipitate” value was found to be 0.6 and the “Relative Luminescence Activity (Imax) Supernatant” value is 7.2. Also, in experiment [2], the “Relative Luminescence Activity (Imax)” value is reported as 2.5. In the experiment with CHO-K1 cells, the “Relative Luminescence Activity (Imax) (%) Cell Extracts” value is 0.4% and the “Relative Luminescence Activity (Imax) (%) Culture Medium” value was “less than 0.01%”.

B4: KAZ-Q18L: KAZ with glutamine at position 18 substituted by leucine (protein, listed as Oplophorus gracilirostris)
chain: B1 chain with R11Q, Q18L
Take B4: in experiment [1], the “Relative Luminescence Activity (Imax) Precipitate” value came to 0.2 and the “Relative Luminescence Activity (Imax) Supernatant” value is on record as 1.0. Further, in experiment [2], the “Relative Luminescence Activity (Imax)” value was 0.3. In the experiment with CHO-K1 cells, the “Relative Luminescence Activity (Imax) (%) Cell Extracts” value was determined as 0.02% and the “Relative Luminescence Activity (Imax) (%) Culture Medium” value was “less than 0.01%”.

B5: KAZ-A33N: KAZ with single amino acid substitution A33N (protein)
chain: B1 chain with R11Q, A33N
For B5, in experiment [1], the “Relative Luminescence Activity (Imax) Precipitate” value is on record as 0.4 and the “Relative Luminescence Activity (Imax) Supernatant” value is given as 1.0. Besides, the “Relative Luminescence Activity (Imax)” value in experiment [2] is on record as 1.0. Besides, in the experiment with CHO-K1 cells, the “Relative Luminescence Activity (Imax) (%) Cell Extracts” value is on record as 0.1% and the “Relative Luminescence Activity (Imax) (%) Culture Medium” value is “less than 0.01%”.

B6: KAZ-K43R: KAZ with single amino acid substitution K43R (protein)
chain: B1 chain with R11Q, K43R
Turning to B6, in experiment [1], the “Relative Luminescence Activity (Imax) Precipitate” value stood at 0.2 and the “Relative Luminescence Activity (Imax) Supernatant” value turned out to be 1.8. Moreover, in experiment [2], the “Relative Luminescence Activity (Imax)” value turned out to be 0.6. In the experiment on CHO-K1 cells, the “Relative Luminescence Activity (Imax) (%) Cell Extracts” value was 0.1% and the “Relative Luminescence Activity (Imax) (%) Culture Medium” value is listed as “less than 0.01%”.

B7: KAZ-L27V: KAZ with single amino acid substitution L27V (protein)
chain: B1 chain with R11Q, L27V
As to B7, in experiment [1], the “Relative Luminescence Activity (Imax) Precipitate” value is 0.1 and the “Relative Luminescence Activity (Imax) Supernatant” value came out at 0.1. Moreover, in experiment [2], the “Relative Luminescence Activity (Imax)” value is 0.1. In the experiment on CHO-K1 cells, the “Relative Luminescence Activity (Imax) (%) Cell Extracts” value was 0.02% and the “Relative Luminescence Activity (Imax) (%) Culture Medium” value was “less than 0.01%”.
